Reference: PMC10234410, “Regulation of intestinal stem cell activity by a mitotic cell cycle regulator Polo in Drosophila”

B1: F2-4-3 mutant probe (dsDNA)
DNA 1: GAACGCACGAGCAGACACTCAACAAAATACCGCGATACATACCAGAAAGTGTGCGATAGC
DNA 2: GCTATCGCACACTTTCTGGTATGTATCGCGGTATTTTGTTGAGTGTCTGCTCGTGCGTTC
B2: F2-4-3 wild-type probe (dsDNA)
DNA 1: GAATTTGTTGTTCAACACTCAACAAAATACCGCGATACATACCAGAAAGTGTGCGATAGC
DNA 2: GCTATCGCACACTTTCTGGTATGTATCGCGGTATTTTGTTGAGTGTTGAACAACAAATTC

Target: Sox21aHMG-BD (Drosophila melanogaster, UniProt M9PFG6 108-208)
Sequence (M9PFG6 entry or part of it): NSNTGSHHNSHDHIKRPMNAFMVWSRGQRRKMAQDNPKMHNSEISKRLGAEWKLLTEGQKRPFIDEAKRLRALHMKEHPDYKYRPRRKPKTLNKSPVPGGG
Experiment: EMSA; 25 mM HEPES pH 7.5, 40 mM KCl, 3 mM DTT, 10% glycerol, 0.1 mM EDTA, 0.5 mg/ml BSA, 0.5 mg/ml poly-glutamate, 25 C, 30 min; 6% native PAGE
Conditions: protein: recombinant; tags: His-tag at C-terminus (pET-28b); label: Cy5

| Binder | binding result |
| --- | --- |
| B1 | no binding |
| B2 | binds |
